# Several values for one entry are separate records, joined by “and”; a condition that tells them apart may be missing. Equal entries are not always repeated.
# Assays:
# [1] = target: light meromyosin (LMM) (rabbit); experiment: ELISA
# [2] = target: J peptide (15-kD CNBr fragment of LMM) (rabbit); experiment: ELISA
# [3] = target: K peptide (30-kD CNBr fragment of LMM) (rabbit); experiment: ELISA
# [4] = target: dansylated LMM (rabbit); experiment: fluorescence polarisation
# [5] = target: light meromyosin (LMM) (rabbit); experiment: electron microscopy
# [6] = target: titin (rabbit); experiment: light scattering
# [7] = target: titin (rabbit); experiment: ELISA
substance,measurement,setting,value
titin (natural protein),Kd,[1],12 nM
same,Kd,[2],30 nM and 20 nM
same,fold lower affinity than the 15-kD peptide,[3],100 fold
same,Kd,[4],15 nM
same,molecular-binding constant,[4],400 nM
same,percent of molecules closely associated,[5],20%
light meromyosin (LMM) (domain or fragment),stoichiometry N,[6],25 to 50
J peptide (15-kD CNBr fragment of LMM) (domain or fragment),maximum inhibition of titin binding to LMM,[7],60%

# Source: article PMC2120686
